The values that follow come from publication PMC8666670 (2021).

The test addresses GlmU, glucosamine-1-phosphate N-acetyl transferase/N-acetyl-glucosamine-1-phosphate uridylyltransferase of E. … (E. coli, UniProt P0ACC7 1-456). Briefly: SPR. On the technique in general: Surface plasmon resonance follows binding to a sensor surface in real time, without labels.

GlmU, glucosamine-1-phosphate N-acetyl transferase/N-acetyl-glucosamine-1-phosphate uridylyltransferase of E. …, sequence (P0ACC7 whole entry): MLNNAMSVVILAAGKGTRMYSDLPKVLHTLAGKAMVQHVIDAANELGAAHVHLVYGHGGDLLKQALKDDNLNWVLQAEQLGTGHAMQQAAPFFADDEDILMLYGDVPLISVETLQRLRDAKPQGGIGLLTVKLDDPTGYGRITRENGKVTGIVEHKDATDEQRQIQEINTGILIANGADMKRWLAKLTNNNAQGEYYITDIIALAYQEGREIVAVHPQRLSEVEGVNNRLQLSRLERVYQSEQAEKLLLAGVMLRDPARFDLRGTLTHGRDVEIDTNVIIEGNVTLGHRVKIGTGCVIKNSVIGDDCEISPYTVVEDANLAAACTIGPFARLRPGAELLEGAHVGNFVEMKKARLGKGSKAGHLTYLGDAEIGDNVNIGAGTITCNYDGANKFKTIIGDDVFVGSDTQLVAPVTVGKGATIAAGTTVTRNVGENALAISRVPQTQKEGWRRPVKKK

B1: acetyl-acyl carrier protein (acetyl-ACP) (natural protein)
chain: MSTIEERVKKIIGEQLGVKQEEVTNNASFVEDLGADSLDTVELVMALEEEFDTEIPDEEAEKITTVQAAIDYINGHQA
modifications: prosthetic group with attached acetyl chain (acetyl thioester), made from apo-ACP and acetyl-CoA with [ACP]synthase
The Kd is the equilibrium constant for the complex coming apart. High values mean weaker binding, low ones tighter binding. Molecule B1 gave a Kd of 82.5 µM. This counts as double-digit micromolar.
